Assay [1] addresses β2AR-Renilla Reniformus luciferase II fusion (UniProt P07550 1-413). Nature of the assay: cell-based or functional assay.
Another assay addresses FLAG-β2AR (UniProt P07550 1-413, limits assumed). In words: cell-based or functional assay.

These results are taken from US20180353567A1 (THOMAS JEFFERSON UNIVERSITY, published 2018).

B1: ICL1-11 (peptide)
peptide: TAIAKFERLQTVTNYF
HELM: PEPTIDE1{[CCCCCCCCCCCCCCCC(=O)[*:2]].T.A.I.A.K.F.E.R.L.Q.T.V.T.N.Y.F.[am]}$$$$V2.0
SMILES: CCCCCCCCCCCCCCCC(=O)N[C@H](C(=O)N[C@@H](C)C(=O)N[C@H](C(=O)N[C@@H](C)C(=O)N[C@@H](CCCCN)C(=O)N[C@@H](Cc1ccccc1)C(=O)N[C@@H](CCC(=O)O)C(=O)N[C@@H](CCCNC(=N)N)C(=O)N[C@@H](CC(C)C)C(=O)N[C@@H](CCC(N)=O)C(=O)N[C@H](C(=O)N[C@H](C(=O)N[C@H](C(=O)N[C@@H](CC(N)=O)C(=O)N[C@@H](Cc1ccc(O)cc1)C(=O)N[C@@H](Cc1ccccc1)C(N)=O)[C@@H](C)O)C(C)C)[C@@H](C)O)[C@@H](C)CC)[C@@H](C)O
Turning to B1, the “EC50 of β-arrestin2 recruitment to the β2AR (BRET)” value (from here on “EC50 of β-arrestin2 recruitment”) in assay [1] was determined as 1.7 µM. Besides, the “cAMP production in HEK293 cells stably overexpressing FLAG-β2AR” value with FLAG-β2AR was ~2 fold increase over vehicle.

B2: ICL1-4 (peptide)
peptide: VITAIAKFERLQTVTN
HELM: PEPTIDE1{[CCCCCCCCCCCCCCCC(=O)[*:2]].V.I.T.A.I.A.K.F.E.R.L.Q.T.V.T.N.[am]}$$$$V2.0
SMILES: CCCCCCCCCCCCCCCC(=O)N[C@H](C(=O)N[C@H](C(=O)N[C@H](C(=O)N[C@@H](C)C(=O)N[C@H](C(=O)N[C@@H](C)C(=O)N[C@@H](CCCCN)C(=O)N[C@@H](Cc1ccccc1)C(=O)N[C@@H](CCC(=O)O)C(=O)N[C@@H](CCCNC(=N)N)C(=O)N[C@@H](CC(C)C)C(=O)N[C@@H](CCC(N)=O)C(=O)N[C@H](C(=O)N[C@H](C(=O)N[C@H](C(=O)N[C@@H](CC(N)=O)C(N)=O)[C@@H](C)O)C(C)C)[C@@H](C)O)[C@@H](C)CC)[C@@H](C)O)[C@@H](C)CC)C(C)C
Consider B2, for which, in assay [1], the “EC50 of β-arrestin2 recruitment” value amounted to 1.9 µM.

B3: ICL1-20 (peptide)
peptide: LVITAIAKFERLQTVT
HELM: PEPTIDE1{[CCCCCCCCCCCCCCCC(=O)[*:2]].L.V.I.T.A.I.A.K.F.E.R.L.Q.T.V.T.[am]}$$$$V2.0
SMILES: CCCCCCCCCCCCCCCC(=O)N[C@@H](CC(C)C)C(=O)N[C@H](C(=O)N[C@H](C(=O)N[C@H](C(=O)N[C@@H](C)C(=O)N[C@H](C(=O)N[C@@H](C)C(=O)N[C@@H](CCCCN)C(=O)N[C@@H](Cc1ccccc1)C(=O)N[C@@H](CCC(=O)O)C(=O)N[C@@H](CCCNC(=N)N)C(=O)N[C@@H](CC(C)C)C(=O)N[C@@H](CCC(N)=O)C(=O)N[C@H](C(=O)N[C@H](C(=O)N[C@H](C(N)=O)[C@@H](C)O)C(C)C)[C@@H](C)O)[C@@H](C)CC)[C@@H](C)O)[C@@H](C)CC)C(C)C
Turning to B3, the “EC50 of β-arrestin2 recruitment” value in assay [1] came to 1.1 µM.
